Laboratory results from patent publication US20110020273A1 (published 2011).

Biological target: T1, CD20 (human, UniProt P11836 1-297)
T1 sequence (looked up): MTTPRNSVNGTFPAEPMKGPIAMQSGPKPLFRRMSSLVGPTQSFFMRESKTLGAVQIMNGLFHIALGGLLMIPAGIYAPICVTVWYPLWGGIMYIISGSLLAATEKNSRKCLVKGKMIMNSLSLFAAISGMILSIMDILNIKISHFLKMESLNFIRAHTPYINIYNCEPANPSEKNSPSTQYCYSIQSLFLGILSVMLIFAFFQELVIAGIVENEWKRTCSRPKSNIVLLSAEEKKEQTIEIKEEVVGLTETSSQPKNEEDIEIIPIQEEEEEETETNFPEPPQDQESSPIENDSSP
Experiment: cell-based or functional assay

B1: veltuzumab (antibody, V domains shown)
VH: QVQLQQSGAEVKKPGSSVKVSCKASGYTFTSYNMHWVKQAPGQGLEWIGAIYPGMGDTSYNQKFKGKATLTADESTNTAYMELSSLRSEDTAFYYCARSTYYGGDWYFDVWGQGTTVTVSS
VL: DIQLTQSPSSLSASVGDRVTMTCRASSSVSYIHWFQQKPGKAPKPWIYATSNLASGVPVRFSGSGSGTDYTFTISSLQPEDIATYYCQQWTSNPPTFGGGTKLEIK
  EC50, in vitro proliferation of Jeko-1 cells: 1.5 nM
